The values that follow come from the supplement of paper PMC9112550, “Optimization of the antimicrobial peptide Bac7 by deep mutational scanning” (BMC Biology, 2022).

In the data set the test system is Escherichia coli TOP10. In words: shrunken log2 fold change of peptide-encoding DNA abundance (4.5 h post-induction vs induction); higher = less antimicrobial activity (less host growth inhibition). As to conditions: time post-induction: 4.5 h; library: site-saturation at positions 5, 18, 19, 20.
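Note: peptides expressed intracellularly from a pBAD plasmid library in pooled LB shake-flask culture, induced with 0.3% L-arabinose, DNA abundance read by NGS, three biological replicates, DESeq2 with apeglm shrinkage.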

Regarding RRIRERPPRLPRPRPRPNKWPRP, the “shrunken log2 fold change” value was -0.576. The same measure for RRIRVRPPRLPRPRPRPHLFPRP: 0.461; for RRIRGRPPRLPRPRPRPCECPRP: -0.0257.

As to RRIRWRPPRLPRPRPRPRCAPRP, the “shrunken log2 fold change” value was 0.586. For RRIRRRPPRLPRPRPRPIWNPRP, the “shrunken log2 fold change” value came out at 0.0946. The same measure for RRIRNRPPRLPRPRPRPPLRPRP: 0.138; for RRIRHRPPRLPRPRPRPTKKPRP: -0.0507; for RRIRFRPPRLPRPRPRPILVPRP: -0.152.

Regarding RRIRHRPPRLPRPRPRPGCVPRP, the “shrunken log2 fold change” value is 0.000164.

Take RRIRKRPPRLPRPRPRPTTVPRP: the “shrunken log2 fold change” value came to 0.331. The same measure for RRIRRRPPRLPRPRPRPPPRPRP: 1.32; for RRIRMRPPRLPRPRPRPEETPRP: 0.0205; for RRIRRRPPRLPRPRPRPIPKPRP: 0.0997. Next, RRIRPRPPRLPRPRPRPHMWPRP: -0.175; RRIRARPPRLPRPRPRPQMAPRP: 0.274; RRIRQRPPRLPRPRPRPMLEPRP: 0.0533.

For the sequence RRIRKRPPRLPRPRPRPSQPPRP, the “shrunken log2 fold change” value is 0.0235.

For the sequence RRIRGRPPRLPRPRPRPEMFPRP, the “shrunken log2 fold change” value stood at 0.0463. The same measure for RRIRKRPPRLPRPRPRPTLLPRP: 0.083; for RRIRIRPPRLPRPRPRPKETPRP: -0.0675; for RRIRARPPRLPRPRPRPEYTPRP: -0.0194. The same measure for RRIRMRPPRLPRPRPRPAPWPRP: 0.807; for RRIRNRPPRLPRPRPRPYDAPRP: -0.066. Turning to RRIRMRPPRLPRPRPRPSAGPRP, the “shrunken log2 fold change” value was found to be 0.655. For RRIRHRPPRLPRPRPRPLYIPRP, the “shrunken log2 fold change” value is -0.777.

Regarding RRIRYRPPRLPRPRPRPWSVPRP, the “shrunken log2 fold change” value was -0.554.

RRIRKRPPRLPRPRPRPQANPRP: the “shrunken log2 fold change” value stood at 0.066. Next, RRIRFRPPRLPRPRPRPPERPRP: 0.891. The same measure for RRIRWRPPRLPRPRPRPFCMPRP: -0.218; for RRIRIRPPRLPRPRPRPFPQPRP: -0.549; for RRIRHRPPRLPRPRPRPLCKPRP: 0.0111. Next, RRIRRRPPRLPRPRPRPNVWPRP: 1.99.

With RRIRKRPPRLPRPRPRPAQEPRP, the “shrunken log2 fold change” value worked out at 0.371. The same measure for RRIRTRPPRLPRPRPRPENWPRP: 0.157; for RRIRLRPPRLPRPRPRPHCVPRP: -0.068. The same measure for RRIRCRPPRLPRPRPRPDMEPRP: 0.000584; for RRIRIRPPRLPRPRPRPGICPRP: -0.0709.

For the sequence RRIRPRPPRLPRPRPRPFAGPRP, the “shrunken log2 fold change” value was determined as 0.0806.

Turning to RRIRTRPPRLPRPRPRPKTEPRP, the “shrunken log2 fold change” value is 0.0183. The same measure for RRIRKRPPRLPRPRPRPGMDPRP: 0.195; for RRIRQRPPRLPRPRPRPVCCPRP: 0.161; for RRIRWRPPRLPRPRPRPYTQPRP: 0.167. The same measure for RRIRKRPPRLPRPRPRPSSPPRP: -0.563.

As to RRIRKRPPRLPRPRPRPHIMPRP, the “shrunken log2 fold change” value is -0.0414.

On to RRIRCRPPRLPRPRPRPQCLPRP, for which the “shrunken log2 fold change” value was -0.442. Consider RRIRYRPPRLPRPRPRPICGPRP, for which the “shrunken log2 fold change” value was -0.359. The same measure for RRIRIRPPRLPRPRPRPQLDPRP: -0.138; for RRIRCRPPRLPRPRPRPCNCPRP: -0.278; for RRIRMRPPRLPRPRPRPKFVPRP: 0.0832. The same measure for RRIRNRPPRLPRPRPRPTTIPRP: -0.819; for RRIRPRPPRLPRPRPRPHATPRP: 0.323; for RRIRCRPPRLPRPRPRPMGMPRP: -0.184. The same measure for RRIRFRPPRLPRPRPRPTHVPRP: 0.119. Turning to RRIRWRPPRLPRPRPRPESWPRP, the “shrunken log2 fold change” value is 1.05.

As to RRIRGRPPRLPRPRPRPALMPRP, the “shrunken log2 fold change” value stood at 0.879. Next, RRIRCRPPRLPRPRPRPILYPRP: -0.716.

With RRIRDRPPRLPRPRPRPLIEPRP, the “shrunken log2 fold change” value worked out at 0.573. RRIRLRPPRLPRPRPRPGWVPRP: the “shrunken log2 fold change” value was found to be 0.117. Consider RRIRCRPPRLPRPRPRPKVEPRP, for which the “shrunken log2 fold change” value came to 0.345. Next, RRIRKRPPRLPRPRPRPLKCPRP: -0.072; RRIRPRPPRLPRPRPRPYWLPRP: -0.377.

As for RRIRIRPPRLPRPRPRPGEFPRP, the “shrunken log2 fold change” value was -0.0994. The same measure for RRIRVRPPRLPRPRPRPWCQPRP: -0.187; for RRIRTRPPRLPRPRPRPICTPRP: 0.409. Next, RRIRGRPPRLPRPRPRPGNRPRP: 0.333; RRIRIRPPRLPRPRPRPITVPRP: -0.426. Next, RRIRKRPPRLPRPRPRPKKGPRP: 0.368. With RRIRNRPPRLPRPRPRPWNVPRP, the “shrunken log2 fold change” value amounted to 0.00489. Regarding RRIRKRPPRLPRPRPRPLPCPRP, the “shrunken log2 fold change” value came out at 0.213. With RRIRVRPPRLPRPRPRPGRCPRP, the “shrunken log2 fold change” value worked out at 0.627. Consider RRIRHRPPRLPRPRPRPSWGPRP, for which the “shrunken log2 fold change” value is -0.0416. The same measure for RRIRHRPPRLPRPRPRPVWVPRP: -0.0634. Next, RRIRNRPPRLPRPRPRPLFNPRP: -0.777; RRIRLRPPRLPRPRPRPPFHPRP: -0.0331; RRIRQRPPRLPRPRPRPHGMPRP: 0.0346. Next, RRIRRRPPRLPRPRPRPIMCPRP: 0.0545; RRIRMRPPRLPRPRPRPMFQPRP: -0.228. As for RRIRPRPPRLPRPRPRPFKLPRP, the “shrunken log2 fold change” value was -0.00835. The same measure for RRIRDRPPRLPRPRPRPCNFPRP: -0.0419; for RRIRIRPPRLPRPRPRPGPWPRP: 0.0988.

Take RRIRARPPRLPRPRPRPHNWPRP: the “shrunken log2 fold change” value came to 0.129.

RRIRNRPPRLPRPRPRPSVKPRP: the “shrunken log2 fold change” value is -0.195. Consider RRIRQRPPRLPRPRPRPMYYPRP, for which the “shrunken log2 fold change” value turned out to be 0.0048.

For RRIRKRPPRLPRPRPRPDHRPRP, the “shrunken log2 fold change” value worked out at 0.139. In the case of RRIRARPPRLPRPRPRPRMSPRP, the “shrunken log2 fold change” value was -0.186. Next, RRIRMRPPRLPRPRPRPHSVPRP: 0.0764. Next, RRIRMRPPRLPRPRPRPSFIPRP: -0.668; RRIRWRPPRLPRPRPRPFVEPRP: -0.436. The same measure for RRIRKRPPRLPRPRPRPRNCPRP: 0.0613; for RRIRYRPPRLPRPRPRPDTWPRP: -0.0135. With RRIRNRPPRLPRPRPRPARGPRP, the “shrunken log2 fold change” value was found to be 0.86. Next, RRIRLRPPRLPRPRPRPNCRPRP: 0.00739; RRIRSRPPRLPRPRPRPRCTPRP: 0.0731. The same measure for RRIRTRPPRLPRPRPRPWCDPRP: -0.596; for RRIRVRPPRLPRPRPRPCQNPRP: -0.293. Next, RRIRLRPPRLPRPRPRPACRPRP: 0.227. In the case of RRIRRRPPRLPRPRPRPFRQPRP, the “shrunken log2 fold change” value is -0.0196.

On to RRIRARPPRLPRPRPRPCWCPRP, for which the “shrunken log2 fold change” value turned out to be 0.721. The same measure for RRIRMRPPRLPRPRPRPRKRPRP: 3; for RRIRQRPPRLPRPRPRPEWQPRP: 0.00709. Next, RRIRARPPRLPRPRPRPFREPRP: -0.14. The same measure for RRIRARPPRLPRPRPRPRHIPRP: -0.177; for RRIRKRPPRLPRPRPRPQFKPRP: -0.037; for RRIRPRPPRLPRPRPRPGEVPRP: 0.605. Take RRIRHRPPRLPRPRPRPFQEPRP: the “shrunken log2 fold change” value was -0.00966.

For RRIRPRPPRLPRPRPRPELHPRP, the “shrunken log2 fold change” value stood at 0.0832.

As for RRIRYRPPRLPRPRPRPILNPRP, the “shrunken log2 fold change” value was -0.768. With RRIRPRPPRLPRPRPRPFRNPRP, the “shrunken log2 fold change” value was -0.0931. The same measure for RRIRGRPPRLPRPRPRPRDYPRP: 0.258; for RRIRSRPPRLPRPRPRPLCWPRP: 0.131.

For RRIRLRPPRLPRPRPRPVWAPRP, the “shrunken log2 fold change” value turned out to be 0.424.

Take RRIRHRPPRLPRPRPRPSMVPRP: the “shrunken log2 fold change” value was -0.372. Next, RRIRKRPPRLPRPRPRPKGGPRP: 4.1; RRIRARPPRLPRPRPRPWMRPRP: 0.263.

RRIRARPPRLPRPRPRPYYKPRP: the “shrunken log2 fold change” value is -0.675. As to RRIRYRPPRLPRPRPRPIVDPRP, the “shrunken log2 fold change” value was -0.268. As to RRIRCRPPRLPRPRPRPCHTPRP, the “shrunken log2 fold change” value is 0.00624. As to RRIRARPPRLPRPRPRPCFHPRP, the “shrunken log2 fold change” value is -0.0446. Next, RRIRPRPPRLPRPRPRPWHIPRP: -0.0921; RRIRNRPPRLPRPRPRPEQIPRP: -0.0196. Next, RRIRTRPPRLPRPRPRPVEYPRP: -0.122; RRIRLRPPRLPRPRPRPPNVPRP: 0.0883.

RRIRERPPRLPRPRPRPPIDPRP: the “shrunken log2 fold change” value amounted to 0.0361. The same measure for RRIRARPPRLPRPRPRPGYQPRP: 0.0478; for RRIRVRPPRLPRPRPRPAFIPRP: 0.00175.
